Assay results: paper PMC6382870

Legend:
[1] = molecular target: MrNVPd (246-371) (Macrobrachium rosenbergii nodavirus (MrNV)); assay: SEC; P-domains without the SUMO-tag; column and buffer not stated
[2] = molecular target: MrNVPd double-mutant K327A/D329A (Macrobrachium rosenbergii nodavirus (MrNV)); assay: as above
[3] = molecular target: MrNVPd double-mutant Y293A/D295A (Macrobrachium rosenbergii nodavirus (MrNV)); assay: as above
[4] = molecular target: PvNV capsid protein (1-368) (Penaeus vannamei nodavirus (PvNV)); assay: cryo-EM structure; T = 3 PvNV-LP particles (~29-35 nm) picked from the assembled sample, 6 mg/mL, icosahedral symmetry, 3.5 Å
[5] = molecular target: PvNV capsid protein (1-368) (Penaeus vannamei nodavirus (PvNV)); assay: cryo-EM structure; T = 1 PvNV-LP particles (~22-24 nm) picked from the same sample, icosahedral symmetry, 3.7 Å
[6] = molecular target: PvNVPd (250-368) (Penaeus vannamei nodavirus (PvNV)); assay: SEC; P-domains without the SUMO-tag; column and buffer not stated

Substance: MrNVPd (246-371) (domain or fragment)
- stoichiometry N [1]: 2

Substance: MrNVPd double-mutant K327A/D329A (domain or fragment)
- stoichiometry N [2]: 2

Substance: MrNVPd double-mutant Y293A/D295A (domain or fragment)
- stoichiometry N [3]: 2

Substance: PvNV capsid protein (1-368) (natural protein)
- stoichiometry N [4]: 180 copies
- stoichiometry N [5]: 60

Substance: PvNVPd (250-368) (domain or fragment)
- stoichiometry N [6]: 2
